# B1: peptide deformylase (PDF), unlabeled, with C-terminal His6-tag (enzyme)
# chain: MSVLQVLHIPDERLRKVAKPVEEVNAEIQRIVDDMFETMYAEEGIGLAATQVDIHQRIIVIDVSENRDERLVLINPELLEKSGETGIEEGCLSIPEQRALVPRAEKVKIRALDRDGKPFELEADGLLAICIQHEMDHLVGKLFMDYLSPLKQQRIRQKVEKLDRLKARA
# B2: PDF(Bpy), peptide deformylase labelled at the C-terminus with Bodipy-FL (enzyme)
# chain: MSVLQVLHIPDERLRKVAKPVEEVNAEIQRIVDDMFETMYAEEGIGLAATQVDIHQRIIVIDVSENRDERLVLINPELLEKSGETGIEEGCLSIPEQRALVPRAEKVKIRALDRDGKPFELEADGLLAICIQHEMDHLVGKLFMDYLSPLKQQRIRQKVEKLDRLKARA
# modifications: Bodipy-FL on the C-terminal peptide CSDSK-Bpy
# Tests used:
# [1] = target: DnaK75-RNC, ribosome-nascent-chain complex carrying a 75 amino acid-long nascent chain of DnaK (not stated | E. coli) (UniProt P0A6Y8)
# [2] = target: RNaseH75-RNC, ribosome-nascent-chain complex carrying a 75 amino acid-long nascent chain of RNaseH (not stated | E. coli) (UniProt P0A7Y4)
# [3] = target: TolB75-RNC, formylated ribosome-nascent-chain complex carrying the 75 N-terminal amino acids of TolB (not stated | E. coli) (UniProt P0A855)
# [4] = target: proOmpA75-RNC, ribosome-nascent-chain complex carrying a 75 amino acid-long nascent chain of proOmpA (not stated | E. coli) (UniProt P0A910)
# [5] = target: vacant 70S ribosomes from E. coli MRE600 (E. coli); assay: fluorescence polarisation; equilibrium titration of PDF(Bpy) (200 nM) with 70S ribosomes; fluorescence anisotropy; 10 °C; corrected for light scattering; hyperbolic fit
# [6] = target: TolB75-RNC after deformylation of the nascent chain by PDF (not stated | E. coli) (UniProt P0A855); assay: stopped-flow fluorescence kinetics (chase); preformed 70S-PDF(Bpy) or RNC-PDF(Bpy) complex mixed with excess unlabeled PDF (15 µM); Bodipy fluorescence; buffer A; 10 °C; single-exponential fit
# [7] = target: vacant 70S ribosomes from E. coli MRE600 (E. coli); assay: as above
# [8] = target: TolB75-RNC, formylated ribosome-nascent-chain complex carrying the 75 N-terminal amino acids of TolB (not stated | E. coli) (UniProt P0A855); assay: stopped-flow fluorescence kinetics (association); PDF(Bpy) (300 nM) rapidly mixed with 70S ribosomes or TolB75-RNC (420 nM); buffer A; 10 °C; single-exponential fit, apparent rate at one concentration
# [9] = target: vacant 70S ribosomes from E. coli MRE600 (E. coli); assay: as above
# [10] = target: vacant 70S ribosomes from E. coli MRE600 (E. coli); assay: stopped-flow fluorescence kinetics (titration, global fit); PDF(Bpy) (100 nM) mixed with 70S ribosomes (0.5-2 µM); buffer A; 10 °C; global fit to a one-step binding model in KinTek Explorer; Kd,calc = k-1/k1
# [11] = target: vacant 70S ribosomes from E. coli MRE600 (E. coli); assay: stopped-flow fluorescence kinetics, extrapolated; rate constants measured at 10 °C, extrapolated to 37 °C by Eq. 3 with single-turnover deformylation of TolB75-RNC as the reference; Kd,calc from the extrapolated rate constants
# Chain of UniProt P0A7Y4 (P0A7Y4 whole entry, looked up, one chain of several): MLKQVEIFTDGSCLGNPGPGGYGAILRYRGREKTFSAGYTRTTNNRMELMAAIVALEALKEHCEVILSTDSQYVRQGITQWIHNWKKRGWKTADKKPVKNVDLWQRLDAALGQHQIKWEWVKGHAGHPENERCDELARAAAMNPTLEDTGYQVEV
# Chain of UniProt P0A910 (P0A910 whole entry, looked up, one chain of several): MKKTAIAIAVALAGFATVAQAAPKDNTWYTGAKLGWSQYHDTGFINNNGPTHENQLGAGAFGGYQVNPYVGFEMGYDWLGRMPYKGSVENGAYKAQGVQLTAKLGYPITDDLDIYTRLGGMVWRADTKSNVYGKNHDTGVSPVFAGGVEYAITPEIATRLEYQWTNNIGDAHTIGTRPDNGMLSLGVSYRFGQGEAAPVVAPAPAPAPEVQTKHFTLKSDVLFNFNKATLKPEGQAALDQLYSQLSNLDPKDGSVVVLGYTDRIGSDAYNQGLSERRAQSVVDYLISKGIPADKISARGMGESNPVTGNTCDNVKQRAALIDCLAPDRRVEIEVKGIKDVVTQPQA
# Chain of UniProt P0A6Y8 (P0A6Y8 whole entry, looked up, one chain of several): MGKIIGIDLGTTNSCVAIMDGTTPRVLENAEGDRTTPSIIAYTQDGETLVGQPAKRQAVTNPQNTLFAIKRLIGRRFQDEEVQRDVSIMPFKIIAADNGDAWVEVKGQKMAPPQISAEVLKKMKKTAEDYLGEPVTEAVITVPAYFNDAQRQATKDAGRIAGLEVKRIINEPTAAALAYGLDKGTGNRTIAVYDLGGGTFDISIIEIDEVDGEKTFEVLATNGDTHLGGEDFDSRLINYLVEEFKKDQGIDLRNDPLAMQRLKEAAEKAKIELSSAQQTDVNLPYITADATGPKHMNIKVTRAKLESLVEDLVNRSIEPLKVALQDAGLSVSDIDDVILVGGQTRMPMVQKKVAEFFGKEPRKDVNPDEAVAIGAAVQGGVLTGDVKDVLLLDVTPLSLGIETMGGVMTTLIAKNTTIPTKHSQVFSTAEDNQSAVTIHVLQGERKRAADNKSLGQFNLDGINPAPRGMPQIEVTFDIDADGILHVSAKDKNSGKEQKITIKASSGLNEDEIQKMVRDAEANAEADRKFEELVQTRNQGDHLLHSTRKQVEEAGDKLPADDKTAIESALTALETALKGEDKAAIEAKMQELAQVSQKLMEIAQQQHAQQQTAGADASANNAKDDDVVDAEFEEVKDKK
Binder,"KM of nascent-chain deformylation by PDF, multiple turnover, 37 °C (TLC of f[35S]Met and [35S]Met) [1] [µM]","KM of nascent-chain deformylation by PDF, multiple turnover, 37 °C (TLC of f[35S]Met and [35S]Met) [2] [µM]","KM of nascent-chain deformylation by PDF, multiple turnover, 37 °C (TLC of f[35S]Met and [35S]Met) [3] [µM]","KM of nascent-chain deformylation by PDF, multiple turnover, 37 °C (TLC of f[35S]Met and [35S]Met) [4] [µM]",Kd [5] [µM],koff [6] [s⁻¹],koff [7] [s⁻¹],apparent rate of binding at 420 nM RNC [8] [s⁻¹],apparent rate of binding at 420 nM 70S ribosomes [9] [s⁻¹],Kd [10] [µM],koff [10] [s⁻¹],kon [10] [M⁻¹ s⁻¹],Kd [11] [µM],koff [11] [s⁻¹],kon [11] [M⁻¹ s⁻¹]
B1,0.5,0.6,0.25,0.3,–,–,–,–,–,–,–,–,–,–,–
B2,–,–,–,–,2.1,27,33,40,44,2.1,29,1.4e+07,2,70,4e+07
